# IntAct's records for PubMed 32296183
# B1: Succinate--CoA ligase [ADP-forming] subunit beta, mitochondrial (Homo sapiens), Q9P2R7 (parent)
# chain: MAASMFYGRLVAVATLRNHRPRTAQRAAAQVLGSSGLFNNHGLQVQQQQQRNLSLHEYMSMELLQEAGVSVPKGYVAKSPDEAYAIAKKLGSKDVVIKAQVLAGGRGKGTFESGLKGGVKIVFSPEEAKAVSSQMIGKKLFTKQTGEKGRICNQVLVCERKYPRREYYFAITMERSFQGPVLIGSSHGGVNIEDVAAESPEAIIKEPIDIEEGIKKEQALQLAQKMGFPPNIVESAAENMVKLYSLFLKYDATMIEINPMVEDSDGAVLCMDAKINFDSNSAYRQKKIFDLQDWTQEDERDKDAAKANLNYIGLDGNIGCLVNGAGLAMATMDIIKLHGGTPANFLDVGGGATVHQVTEAFKLITSDKKVLAILVNIFGGIMRCDVIAQGIVMAVKDLEIKIPVVVRLQGTRVDDAKALIADSGLKILACDDLDEAARMVVKLSEIVTLAKQAHVDVKFQLPI
# partner: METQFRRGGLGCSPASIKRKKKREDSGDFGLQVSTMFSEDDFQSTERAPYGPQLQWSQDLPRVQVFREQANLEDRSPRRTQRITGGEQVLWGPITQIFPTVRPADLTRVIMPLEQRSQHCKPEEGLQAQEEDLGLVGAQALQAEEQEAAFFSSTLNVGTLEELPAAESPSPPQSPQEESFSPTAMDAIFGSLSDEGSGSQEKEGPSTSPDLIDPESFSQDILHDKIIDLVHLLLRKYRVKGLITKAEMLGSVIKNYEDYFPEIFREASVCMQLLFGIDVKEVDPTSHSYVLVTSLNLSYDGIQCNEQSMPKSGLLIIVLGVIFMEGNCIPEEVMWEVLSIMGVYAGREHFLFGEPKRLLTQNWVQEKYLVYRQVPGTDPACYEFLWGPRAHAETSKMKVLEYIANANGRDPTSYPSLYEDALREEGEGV
# B2: Succinate--CoA ligase [ADP-forming] subunit beta, mitochondrial (Homo sapiens), Q9P2R7 (parent)
# chain: B1 chain
# Variants of: B1
# Details: with magab_human MAGEA11, P43364
row,Variant,effect of a mutation on the interaction
1,MAASMFYGRLVAVATLRNHRPRTAQRAAAQVLGSSGLFNNHGLQVQQQQQRNLSLHEYMSMELLQEAGVSVPKGYVAKSPDEAYAIAKKLGSKDVVIKAQVLAGGRGKGTFESGLKGGVKIVFSPEEAKAVSSQMIGKKLFTKQTGEKGRICNQVLVCERKYPRREYYFAITMERSFQGPVLIGSSHGGVNIEDVAAESPEAIIKEPIDIEEGIKKEQALQLAQKMGFPPNIVESAAENMVKLYSLFLKYNATMIEINPMVEDSDGAVLCMDAKINFDSNSAYRQKKIFDLQDWTQEDERDKDAAKANLNYIGLDGNIGCLVNGAGLAMATMDIIKLHGGTPANFLDVGGGATVHQVTEAFKLITSDKKVLAILVNIFGGIMRCDVIAQGIVMAVKDLEIKIPVVVRLQGTRVDDAKALIADSGLKILACDDLDEAARMVVKLSEIVTLAKQAHVDVKFQLPI [D251N],disrupting interaction strength
2,MAASMFYGRLVAVATLRNHRPRTAQRAAAQVLGSSGLFNNHGLQVQQQQQRNLSLHEYMSMELLQEAGVSVPKGYVAKSPDEAYAIAKKLGSKDVVIKAQVLAGGRGKGTFESGLKGRVKIVFSPEEAKAVSSQMIGKKLFTKQTGEKGRICNQVLVCERKYPRREYYFAITMERSFQGPVLIGSSHGGVNIEDVAAESPEAIIKEPIDIEEGIKKEQALQLAQKMGFPPNIVESAAENMVKLYSLFLKYDATMIEINPMVEDSDGAVLCMDAKINFDSNSAYRQKKIFDLQDWTQEDERDKDAAKANLNYIGLDGNIGCLVNGAGLAMATMDIIKLHGGTPANFLDVGGGATVHQVTEAFKLITSDKKVLAILVNIFGGIMRCDVIAQGIVMAVKDLEIKIPVVVRLQGTRVDDAKALIADSGLKILACDDLDEAARMVVKLSEIVTLAKQAHVDVKFQLPI [G118R],disrupting interaction strength

# Variants of: B2
# Details: with sc23a_human SEC23A
row,Variant,effect of a mutation on the interaction
1,MAASMFYGRLVAVATLRNHRPRTAQRAAAQVLGSSGLFNNHGLQVQQQQQRNLSLHEYMSMELLQEAGVSVPKGYVAKSPDEAYAIAKKLGSKDVVIKAQVLAGGRGKGTFESGLKGGVKIVFSPEEAKAVSSQMIGKKLFTKQTGEKGRICNQVLVCERKYPRREYYFAITMERSFQGPVLIGSSHGGVNIEDVAAESPEAIIKEPIDIEEGIKKEQALQLAQKMGFPPNIVESAAENMVKLYSLFLKYNATMIEINPMVEDSDGAVLCMDAKINFDSNSAYRQKKIFDLQDWTQEDERDKDAAKANLNYIGLDGNIGCLVNGAGLAMATMDIIKLHGGTPANFLDVGGGATVHQVTEAFKLITSDKKVLAILVNIFGGIMRCDVIAQGIVMAVKDLEIKIPVVVRLQGTRVDDAKALIADSGLKILACDDLDEAARMVVKLSEIVTLAKQAHVDVKFQLPI [D251N],disrupting interaction strength

# Variants of: B2
# Details: with mal2_human MAL2, Q969L2
# Sequence of mal2_human MAL2, Q969L2 (Q969L2 whole entry): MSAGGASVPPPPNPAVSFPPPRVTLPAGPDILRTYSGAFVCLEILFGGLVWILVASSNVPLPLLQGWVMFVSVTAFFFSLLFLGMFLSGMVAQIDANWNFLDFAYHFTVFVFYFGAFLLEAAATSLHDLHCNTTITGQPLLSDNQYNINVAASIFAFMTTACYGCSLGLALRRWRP
row,Variant,effect of a mutation on the interaction
1,MAASMFYGRLVAVATLRNHRPRTAQRAAAQVLGSSGLFNNHGLQVQQQQQRNLSLHEYMSMELLQEAGVSVPKGYVAKSPDEAYAIAKKLGSKDVVIKAQVLAGGRGKGTFESGLKGGVKIVFSPEEAKAVSSQMIGKKLFTKQTGEKGRICNQVLVCERKYPRREYYFAITMERSFQGPVLIGSSHGGVNIEDVAAESPEAIIKEPIDIEEGIKKEQALQLAQKMGFPPNIVESAAENMVKLYSLFLKYNATMIEINPMVEDSDGAVLCMDAKINFDSNSAYRQKKIFDLQDWTQEDERDKDAAKANLNYIGLDGNIGCLVNGAGLAMATMDIIKLHGGTPANFLDVGGGATVHQVTEAFKLITSDKKVLAILVNIFGGIMRCDVIAQGIVMAVKDLEIKIPVVVRLQGTRVDDAKALIADSGLKILACDDLDEAARMVVKLSEIVTLAKQAHVDVKFQLPI [D251N],disrupting interaction strength

# Variants of: B2
# Details: with ar6p1_human ARL6IP1, Q15041
# Sequence of ar6p1_human ARL6IP1, Q15041 (Q15041 whole entry): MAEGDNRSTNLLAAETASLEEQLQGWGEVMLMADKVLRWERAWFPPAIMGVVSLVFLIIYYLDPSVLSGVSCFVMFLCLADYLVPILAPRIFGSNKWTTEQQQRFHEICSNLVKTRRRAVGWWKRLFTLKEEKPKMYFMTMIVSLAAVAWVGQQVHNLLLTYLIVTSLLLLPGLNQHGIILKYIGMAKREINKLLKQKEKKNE
row,Variant,effect of a mutation on the interaction
1,MAASMFYGRLVAVATLRNHRPRTAQRAAAQVLGSSGLFNNHGLQVQQQQQRNLSLHEYMSMELLQEAGVSVPKGYVAKSPDEAYAIAKKLGSKDVVIKAQVLAGGRGKGTFESGLKGGVKIVFSPEEAKAVSSQMIGKKLFTKQTGEKGRICNQVLVCERKYPRREYYFAITMERSFQGPVLIGSSHGGVNIEDVAAESPEAIIKEPIDIEEGIKKEQALQLAQKMGFPPNIVESAAENMVKLYSLFLKYNATMIEINPMVEDSDGAVLCMDAKINFDSNSAYRQKKIFDLQDWTQEDERDKDAAKANLNYIGLDGNIGCLVNGAGLAMATMDIIKLHGGTPANFLDVGGGATVHQVTEAFKLITSDKKVLAILVNIFGGIMRCDVIAQGIVMAVKDLEIKIPVVVRLQGTRVDDAKALIADSGLKILACDDLDEAARMVVKLSEIVTLAKQAHVDVKFQLPI [D251N],disrupting interaction strength
